This is an account of results in the nanobody polyreactivity screen of Harvey et al. (2022).

This data set in a line: yeast display, Sf9 membrane polyspecificity reagent, FACS + sequencing; frameworks hold sequencing errors. A digest of the protocol: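 In a synthetic yeast display library (Saccharomyces cerevisiae BJ5465), nanobody expression was induced with galactose for 36–48 hours. FACS gates were set low and high (top ~1%) using anti-HA fluorescence for expression and streptavidin fluorescence for binding of the Sf9 membrane reagent. Each polyreactivity label is drawn from the gate of origin.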
For “QVQLVESGGGLVQAGGSLRLSCAAYGRTITYYAMGGYRQSPGKERELVAAIPWSGGSTYYADSVKGRFTISRDNAKNTVYLQMNSLKPEDTAVYYCSADSYIYSVNYWGQGTQLTVSS”, the “polyreactivity (PSR sort gate)” value was “low polyreactivity”. With “QVQLVESGGGLVQAGGSLRLSCAAYGSIFCIFAMGWYRQAPGKEWELVAAISSDGSTKYADSVKGRFTISRDNAKNTVYFQMNSLKPEDTAVYYCAKLKYVRIGGPKQSMALDYWGQGTQVTVSS”, the “polyreactivity (PSR sort gate)” value is on record as “low polyreactivity”. For “QVQLVESGGGLVQAGGSLRLSCAAYGSIFPYYAMGWYRQAPGKERELVAGITSGTRTNYADSVKGRFTISRDNAKNTVYLQMNSLKPEDTAVYYCAAYYRAYRRDYYWGQGTQVTVSS” the value was “high polyreactivity”; for “QVQLVESGGGLVQAGGSLRLSCAAYGSIFSFYVMGWNRQAPGKERELVARINWSSTSTYYADSVKGRFTISRDNAKNTVYLQMNSLKPEDTAVYYCAAGRRVYPGYYYWGQGTQVTVSS”, “high polyreactivity”; for “QVQLVESGGGLVQAGGSLRLSCAAYGSTFFRYAMGWYRQAPGKERELVAAISASTGSTYYADSVKGRFTISRDNAKNTVYLQMNSLKPEDTAVYYCNAELGYGTNDNWYDYWGKGTQVTVSS”, “low polyreactivity”. With “QVQLVESGGGLVQAGGSLRLSCAAYGSTFRSYAMGWYRQAPGKERELVAAISYSGDSTYYADSVKGRFTISRDNAKNTVYLQMNSLKPEDTAVYYCAALRDWDFQCEPWKRYGYWGQGTLVTVSS”, the “polyreactivity (PSR sort gate)” value is “low polyreactivity”. For the sequence “QVQLVESGGGLVQAGGSLRLSCAAYGSTFRTNAMGWYRQAPGKERELVAAISQRGGSTYYADSVKGRFTISRDNAKNTVYLQMNSLKPEDTGVYYCAARRYAYQSGGTLLTDDYWGQGTQVTVSS”, the “polyreactivity (PSR sort gate)” value was “high polyreactivity”. On to “QVQLVESGGGLVQAGGSLRLSCAAYGSTFVWNTMGWYLQAPGKERELVAAINWSGTRTYYADSVKGRFTISRDNAKNTVYLQMNSLKPEDTAVYYCAAESYYPAGIRGYWGQGTQVTVSS”, for which the “polyreactivity (PSR sort gate)” value was “high polyreactivity”. “QVQLVESGGGLVQAGGSLRLSCAAYGYIFRLYAMGWYRQAPGKERELVAGISTGGRTNYADSVKGRFTISRDNAKNTVYLQMNSLKPEDTAVYYCAAAWHTAYWVVSDSLGGGYWGQGTQVTVSS”: the “polyreactivity (PSR sort gate)” value was “low polyreactivity”. As for “QVQLVESGGGLVQAGGSLRLSCAAYVRIFGYYAMGWYRQAPGKERELVAGISARGGSTYYADSVKGRLTISRDNAKNTVYLQMNSLKPEDTAVYYCAAYYLWPGYLFRPYDYWGHGTQVTVSS”, the entry is “low polyreactivity”. As to “QVQLVESGGGLVQAGGSLRLSCAAYYAMGWYRQAPGKERELVAAISSTGRTNYADSVKGRFTISRDYAKNTVYLQMNSLKPEDTAVYYCNAGDPSGMDYWGQGTQVTVSS”, the “polyreactivity (PSR sort gate)” value was “low polyreactivity”. For “QVQLVESGGGLVQAGGSLRLSCADSGFIFGNYAMGWYRQAPGKERELVAGISGSGGSTYYADSVKGRFTISRDNAKNTVYLQMNSLKPEDTAVYYCNAGWHPSQGRFEYWGQGTQVTVSS” the value was “high polyreactivity”. For “QVQLVESGGGLVQAGGSLRLSCADSGFIFTVNAMGLYRQAPGKERELVAAITSGGNTYYADSVKGRFTISRDNAKNTVYLQMNSLKPEDAAVYYCNAVFYTWSPYGTTVRSYGYWGQGTQVTVSS” the value was “high polyreactivity”. For “QVQLVESGGGLVQAGGSLRLSCADSGFILGANDMGWYRQAPGKERELVAAIRSSDGTTYYADSVKGRFTISRDNAKNTVYLQMNSLKPEDTAVYYCAADWRLLYDYWGQGTQVTVSS” the value was “high polyreactivity”.

Consider “QVQLVESGGGLVQAGGSLRLSCADSGFTFDYNAMGSYRQAPGKERELVAAISTGGSTKYADSVKGRFTISRDNAKNTVYLQMNSLKPEDTAVYYCNKQTTDRGFYDWKWSGFDYWGQGTQVTVSS”, for which the “polyreactivity (PSR sort gate)” value is listed as “low polyreactivity”.

Regarding “QVQLVESGGGLVQAGGSLRLSCADSGFTFGRYAMRWYRQATGKERELVAAISRGGSYTYYADSVKGRLTISRDNAQNTVFLQMNSLKPEDTAVYYCNIVIIWARFDYWRQGTQVTVSS”, the “polyreactivity (PSR sort gate)” value is listed as “high polyreactivity”.

Turning to “QVQLVESGGGLVQAGGSLRLSCADSGFTFRTYAMGWYRQAPGKEREFVAAITTYGGSTYYADSVKGRFTISRDNAKYTVYLQMNTLKPEDTAVYYCATRGRLRNYDYWGQGTQVTVSS”, the “polyreactivity (PSR sort gate)” value is on record as “high polyreactivity”.

As for “QVQLVESGGGLVQAGGSLRLSCADSGFTFTYYTMGWYRQAPGKERELVAAISGSGGSTYYADSVKGRFTISRDNAKYTVYLQMNSQKPEDSAVYYCAARSRWQSYRLKNHGTYKHDYWGQGTQVTVSS”, the “polyreactivity (PSR sort gate)” value is reported as “high polyreactivity”. For the sequence “QVQLVESGGGLVQAGGSLRLSCADSGFTFYRNAMGWYRQAPGKERELVAAITSTGSTNYADSVKGRFTISRDNAKNTVYLQMNSLKPEDTAVYYCIKRRFGRQGMDYWGQGTQVTVSS”, the “polyreactivity (PSR sort gate)” value was “low polyreactivity”. For “QVQLVESGGGLVQAGGSLRLSCADSGGTFGNTAMGLYRQAHGKEMELVAAINRSDGGTYYADSEKCRFTISRDNAKNTVYLQMNSLKPEDTAVYYCNADDFYYDEPYDFWGQGTQVTVSS” the value was “low polyreactivity”. As for “QVQLVESGGGLVQAGGSLRLSCADSGGTFYRYARGWYRQAPGKERELVAAISRRGGSTYYADSVKGRFTISRDNAKNTVYLQMNSLKPDDTAVYYCDKDVSDSRFDYWGQGTQVTVSS”, the entry is “high polyreactivity”; as for “QVQLVESGGGLVQAGGSLRLSCADSGITFVRNAMGWYIHAPGKERECVAAISGSGVSTYADSVKGRFTISRDNAKNTVYLQMNILKPEDTAVYYCNTDEWYHFYHGAHKYDYWGQATQVTVSS”, “low polyreactivity”; as for “QVQLVESGGGLVQAGGSLRLSCADSGLILYTYAMGWYRQAPGKERELVAAIDWGDGDTYYADSVKGRFTISRDNAKNTVYLQMNSLKPEDTAVYYCAADLVGYSGYYFDEEYYWGQGTQVTVSS”, “high polyreactivity”. Turning to “QVQLVESGGGLVQAGGSLRLSCADSGNTFKGYAMGWYRQAPGKERELVAAISWSGSSTYYADSVKGRFTISRDNAKNTVYLQMNSLKPEDTAVYYCAVTYRRFYYWGQGTQVTVSS”, the “polyreactivity (PSR sort gate)” value was “high polyreactivity”. As for “QVQLVESGGGLVQAGGSLRLSCADSGRIFDVNDKRSYRQAPGKERELVAAITYSGTDTYYADSVKGRFTISRDNAKNTVYLQMNSLKPEDTAVYYCAAEFTGWEYIGRDYWGQGTQVTVSS”, the entry is “low polyreactivity”. As for “QVQLVESGGGLVQAGGSLRLSCADSGRIFGRYAMGWYRQAPGQERELVAGISARGGSTYYADSVKGRFTISRDNAKNTVYLQMNRLKPEDTAVYYCAAAGYRGGGYWGQGTQVTVSS”, the entry is “high polyreactivity”; as for “QVQLVESGGGLVQAGGSLRLSCADSGRIFHTYAMGWYRHAPGKERELVAAISKGGSGTYYADSVKGRFTISRDNAKNTVYLQRNSLKPEDTAVYYCAADLTYHYPRYITYEYWGQRTQVTVSS”, “low polyreactivity”.

Regarding “QVQLVESGGGLVQAGGSLRLSCADSGRIIDTYAMVWYRQAPGKERELVASISRSDTSTSNADSVKGRFTISRDNAKNTVYLQMNSLKPEDTAVYYCNKDGVPVNNTKRYDYWGQGTQVTVSS”, the “polyreactivity (PSR sort gate)” value is “low polyreactivity”.

With “QVQLVESGGGLVQAGGSLRLSCADSGRLFYPYAMGWYTQAPGTERELVAAIRRSGVDTYYADSVKGRFTISRDNAKNTVYLQMNSLKPEDTAVYYCAADPYSFFPHYDSWGQGTQVTVSS”, the “polyreactivity (PSR sort gate)” value is given as “low polyreactivity”. For “QVQLVESGGGLVQAGGSLRLSCADSGRTFQYYAMGWSRQSPAKERELVAAITSGGSTYYADSVKGRFTISRDNAKNTVYLQMNSLKTEDTAVYYCAADFLYYSSGGKMDYWGQGTQVTVSS” the value was “low polyreactivity”.
